Test results published in IntAct's records for PubMed 12050133.

B1: Homeobox protein SIX3 (Mus musculus), Q62233 (parent)
chain: MVFRSPLDLYSSHFLLPNFADSHHCSLLLASSGGGSGASGGGGGAGGGGGGNRAGGGGAGGAGGGSGGGGSRAPPEELSMFQLPTLNFSPEQVASVCETLEETGDIERLGRFLWSLPVAPGACEAINKHESILRARAVVAFHTGNFRDLYHILENHKFTKESHGKLQAMWLEAHYQEAEKLRGRPLGPVDKYRVRKKFPLPRTIWDGEQKTHCFKERTRSLLREWYLQDPYPNPSKKRELAQATGLTPTQVGNWFKNRRQRDRAAAAKNRLQHQAIGPSGMRSLAEPGCPTHGSAESPSTAASPTTSVSSLTERADTGTSILSVTSSDSECDV

Variants of: B1
Conditions: with tle4_mouse Tle4, Q62441
Chain of tle4_mouse Tle4, Q62441 (Q62441 whole entry): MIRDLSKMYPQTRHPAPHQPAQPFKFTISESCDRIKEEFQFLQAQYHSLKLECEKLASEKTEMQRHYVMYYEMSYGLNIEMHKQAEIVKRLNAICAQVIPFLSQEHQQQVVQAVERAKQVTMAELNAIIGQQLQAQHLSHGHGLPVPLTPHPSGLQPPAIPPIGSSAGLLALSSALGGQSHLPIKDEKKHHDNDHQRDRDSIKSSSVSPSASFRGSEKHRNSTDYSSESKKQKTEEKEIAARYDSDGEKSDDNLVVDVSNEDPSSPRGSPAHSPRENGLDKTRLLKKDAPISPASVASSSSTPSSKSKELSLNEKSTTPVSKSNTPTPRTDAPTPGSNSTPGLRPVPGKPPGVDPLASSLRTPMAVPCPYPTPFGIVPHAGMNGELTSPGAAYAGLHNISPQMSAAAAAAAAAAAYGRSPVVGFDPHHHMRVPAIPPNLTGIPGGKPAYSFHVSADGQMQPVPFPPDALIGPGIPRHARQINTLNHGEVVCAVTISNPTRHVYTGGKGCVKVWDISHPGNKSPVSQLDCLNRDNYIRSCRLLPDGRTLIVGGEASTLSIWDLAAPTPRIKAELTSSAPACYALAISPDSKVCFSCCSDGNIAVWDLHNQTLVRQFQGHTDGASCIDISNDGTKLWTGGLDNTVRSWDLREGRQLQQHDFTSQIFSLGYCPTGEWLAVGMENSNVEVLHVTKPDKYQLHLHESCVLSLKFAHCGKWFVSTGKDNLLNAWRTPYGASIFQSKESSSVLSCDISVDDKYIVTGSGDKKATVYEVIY

| effect of a mutation on the interaction | Variant |
| --- | --- |
| decreasing interaction | F88E |
